{"source": "the DeepSol protein solubility set"}
{"assay": "soluble on expression in E. coli; label from the status in PepcDB or PDB records"}
{"sequence": "MLTQEQIMNALKHVEDPELHKSVVELNMVRNIQMNGTEVKLEVVLTIQGCPLKAKIQQDIEESLHAIGASKVEVTFGSMTQEERAALTEKLKRNTRTETGMPSMLRPDSGVRFITVTSGKGGVGKSTVTINLATALARMGKKVGILDADIYGFSIPAMMETNKKPTMIDQTAIPVISHGVKIMSMGFFTEGNNPVMWRGPMLNKWIQNFLANTHWGELDYLLLDLPPGTGDVAIDVAAMIPQAKEIIVTTPHNIASFVASRVGVMAKHTKHEILGIVENMAYYEEQDGSKNYLFGKGGGEMLAEQLQTEVIAKIPFAKREENNGSSVYDEDSLVGEVFTSLAEDIIYRGLEHHHHHH", "soluble on expression in E. coli": "soluble"}
{"sequence": "MITLGFMSLSRQHEADYSAELAKRAPEFGIRFIRFTPFDISPDTLRVKASVYHSASSTWNETEMAIPDYIYDRCFYGKDSHSQKAKPIVEWLKKYPKTEFIGRGLPDKWTVLHDLQQHSVINPYIPETIKVSRYEQIHSFLSKEKACILKPAFGAGGRGVILLKLGKKNITATYHIGKDKQTKTFSNQTSFKTWCKKVLQHQYLLQPYLNIQDKEQYPCDIRLFMEKNEAGEWNTVGKAVRRGYKHGLLANLSGGSDALTFDSWFEDIPKKQQVVLLDDVFSITQSVPYYLDERYGPLFELGLDICLAKDGRIWILDINSKPGRKSILRVSPEQKEQLYTCPLKRCQYLFSEQSQKGVLPRES", "soluble on expression in E. coli": "not soluble"}
{"sequence": "MTKVQDITRESWILNTFPEWGTWLNEEIEQEVVPADNFAMWWLGNCGIWIKTPGGANVVMDLWSNRGKATKQVKDMVRGHQMANMAGARKLQPNLRAQPMVIDPFMINELDYYLVSHYHSDHIDINTAAAIINNPKLNHVKFVGPYECGEVWKNWGVPKDRIMILKPGDSFEFKDIKITAVESFDRTCLVTLPIQGADAQDGDLAGLAITDDDMARKAVNYIFETPGGTIYHGADSHFSNYFAKHGRDYDIDVVLNNYGENPIGIQDKMTSVDLLRMAENLRAKVVIPVHYDIWSNFMASTDEILELWKMRKERLQYDFHPFIWEVGGKYTYPQDQNRIEYHHPRGFDDCFLEDSNIQFKALL", "soluble on expression in E. coli": "not soluble"}
{"sequence": "FKYIQKIAKTEIKREEVPDVKDIISAKKIKIISGIKEVLESGKYADCEKMASDLLEDADPQEVLSAVLKYALKDELS", "soluble on expression in E. coli": "not soluble"}
{"sequence": "VDWTDAERSAIVGLWGKISVDEIGPQALARLLIVSPWTQRHFSTFGNLSTPAAIMGNPAVAKHGKTVMHGLDRAVQNLDDIKNTYATLSVMHSEKLHVDPDNFRLLADCITVCVAAKLGPAVFSADTQEAFQKFLAVVVSALGRQYH", "soluble on expression in E. coli": "soluble"}
{"sequence": "MNSFRWDIYFETGIEDVDDQHQYLVEFINKYGKLLTRNTISIADIQSALFELSRYAEFYFKEEENLMREVGIHHEHLQKHIQVHRTFMGDIVSMQSFINEDNRQSAEQLLDFLIHWLAYHILGIDQNMAKQIKAIERGVSPLEAYREQEQQANASTEP", "soluble on expression in E. coli": "soluble"}
{"sequence": "MRNFDLIRLTEAQWHDRESAHQLRADRLTADHMKRRRAGISHPVYDFLFEYYPVRVAHMKKWHPGVGVGIEGNPPHSRWKGYTTIDDVTVVDVEALKKKRSSTLHYVSNLLKQTQLNPTHFDCFGLHEWAMVYQTSQPRHALPLRLGAQGSNKVVESHNIRCTHFDAFRFFTEPAVPLNFQVLTRENQPSCEQPGCLHAMMDLYKWSAKLGPLIPGDLWLDTFELAWDCRVLDMEASPYDCTDYGLGIVPIETAEGKAEYVRRQRELSERGQLLRQRLVAELDRIDRFTLTS", "soluble on expression in E. coli": "not soluble"}
{"sequence": "MGSDKIHHHHHHMEHLLEVNNLSVSFKVEEGEVQAVRNVSFNLKKGETLAIVGESGCGKSVLCKSLMRILPYNGYIKNGEVLLKSSDLVKKSEKEMEDIRGKNISMIFQDPMTSLNPTISIGKQIAEAVIIHQGISKSEAKKRAIELIELVGIDNPEKRFKQFPHHFSGGMRQRIVIAIALACNPDVLIADEPTTALDVTIQAQIIDLIKDLQHKIGLSIIFITHDLGVVATIADRIAVMYAGKIVEIGTVEDIFYDPRHPYTWGLLGSLPTLDSQDDYLYNIPGMPPNLLNPPKGDAFAIRNKNALKIDYEKEPPMFKINDTHSAATWLLHPDAPEVDVPVRVNCGRVISNE", "soluble on expression in E. coli": "not soluble"}
{"sequence": "MGSDKIHHHHHHMALPKKLKALNLFNNGESYLGQVVEVKLPTLSRKMEEYRGGGMNGPVDIDFGQEKIELEWKCGGMMRSVLNQYGATTHNAVQLRFAGSYQRDDSGAVDAVEFVVRGRHKEIDPGTGKSGDDTEFSVKTSASYYKLMINGSTVIEIDLMNMIEIVNGVDLLAPHRRAIGA", "soluble on expression in E. coli": "not soluble"}
{"sequence": "MTKLGLGLSGDLGAQEIVRMLDLQPHPEGGWYRQTFQDAPGPDGRAASTCIYYLLEAEQMSAWHRVDAVETWHYYAGAPISLTLSPPDGKGASAYVLGPDLRAGCRPQVIVPTLWWQTAVSLGAWTLVGCTVAPGFRFEGFEMAPPDWTPSTGLEHHHHHH", "soluble on expression in E. coli": "soluble"}
{"sequence": "MAHHHHHHMGTLEAQTQGPGSMQKNMVETEPVQGCRDFPPEAMRCRRHLFDVFHATAKTFGFEEYDAPVLESEELYIRKAGEEITEQMFNFITKGGHRVALRPEMTPSLARLLLGKGRSLLLPAKWYSIPQCWRYEAITRGRRREHYQWNMDIVGVKSVSAEVELVCAACWAMRSLGLSSKDVGIKVNSRKVLQTVVEQAGVTSDKFAPVCVIVDKMEKIPREEVEAQLAVLGLEPTVVDAITTTLSLKSIDEIAQRVGEEHEAVKELRQFFEQVEAYGYGDWVLFDASVVRGLAYYTGIVFEGFDREGKFRALCGGGRYDNLLTTYGSPTPIPCAGFGFGDCVIVELLQEKRLLPDIPHVVDDVVIPFDESMRPHALAVLRRLRDAGRSADIILDKKKVVQAFNYADRVGAVRAVLVAPEEWERGEVQVKMLREGTGKEEGGAERGFAVPLDRLV", "soluble on expression in E. coli": "soluble"}
{"sequence": "MGSDKIHHHHHHLTTVLNASPQRFVNTPAVQRIAQRALRYLQSGFSIHLRGAAGVGKTTLAMHLADLLNQPIILLFGDDEFKTSDLIGNQLGYTRKKVVDNFIHSVIKVEDEVRQHWVDARLTLACKEGFTLVYDEFNRSHPEVNNVLLSVLEERLLVLPTNQHRAEYIRVHPQFRAILTSNPQEYCGVHATQDALMDRVITIDMPTPDELSQQEIVVHKTGIDSEKAEVIVRIVRTFWSRSGSGQGGGLRSCLMIAKICHEHEISVNPGDPSFQDICADILLSRTNQPLIEATRLLEEVLSEFYHRINTQSQPSEIIPNNQNQIVLEQRVPYEHEVYNYLCNSPGRRFSELAVELGIDRSQIVAALKSLREQGVLVQMQGNAESPSISQTVAFDSGHLINK", "soluble on expression in E. coli": "not soluble"}
{"sequence": "MKLIITSGGTTEPIDAVRGITNHSTGQLGKLITERFLQYHHDVTLVTTKTATKPLPNKRLRIIEVETVNDLMAALKDQVPHHDILIHSMAVSDYTPVYMTDLEQVSQADNLNCFLCEHNSEPKISSASDYQVLFLKKTPKVISYVKQWNPNIKLVGFKLLVNVPQEELIKVARASLAKNHADYILANDLVDIQTGMHKALLISNNEVASADTKEAIADLLYERMTKHD", "soluble on expression in E. coli": "not soluble"}
{"sequence": "MTSQTAFDLIFRNTLLRSSAAPVDIGVKGGRIAAIEPGLTCEAVEVDVGGHLALPGFVDTHIHLDKACLLGRCGHNHGSVSEAIRAVAGMKKDFTVEDVYARGARVLERAIVHGTTRMRTHVEIDPRIGLRGFEAVKALKRDYAWAIDLSLCVFPQEGLTNDPGAEDLLIQALRDGGETIGGCPYMDTDPNTHLERIFNLAQEFDVDVDLHLDFDLDPSWWHLDEVCRQTERRNYGGRVAVGHATKLSALPPEPLKAATAQLAKAGVAVTVLPATDLYLMGREATHNAPRGLTLAHKLAGDGVLCSVATNNVLNPFTPFGDASLLRMANFYANVAHASVSDFDICLDLVTELPARLMNLGDYGIKVGNPADLIVLDTQDSRFAIAELPDVMMGFKAGRQTFARQRPTLFSPGR", "soluble on expression in E. coli": "soluble"}
{"sequence": "MAHHHHHHMNSTTTISADPDGSSLCAASRISTPGTMSVLVPYKRRGQKSSMARGGASPQRRSPQPPYAGKSISTSASTLSSSVQPHGAGAASRGDQSRRGDAAPDGTLNAYSSHPAAPLDRPRDEEFDAVEQRARMALESIATRDEDLEPSMGDHIGVLQSYRTACEARAMYREAYLVQQVLRNLRLEEESRHVRGITEQQMEERRILEEAHRQEFREFHHSWNARIDAFEEEQLEAELALLERQNEELIRFQEEMRNFQPRLLRYSRSLLESRLKQQTLAKQRDYVGAQAQKAHAEAIEVEDIERFEAARMSLFERREYAARHRHQQELYALRTKVESRRLYLERYRKQELDVLLQRYINARRSMESQQNIVRNKTGTLLLKHACNMKTDSSGTAVLVESAGSGAFGTMVQRRQAYELRALQGSPDGASASVRDGSAM", "soluble on expression in E. coli": "not soluble"}
{"sequence": "MIISDKFSLEAMCATTITDVKAGDEIILYGQKLTDENSCVTIKTDRVDIISSGNFIKYPNSTDIYDFDNKIDEWSFIIVEGVVNGNTIELNDKSTF", "soluble on expression in E. coli": "not soluble"}
{"sequence": "KKDFTWSSTVTFTANKEKIKSLIEGQDMMFNAKKGDMVFKVGEGVGSFYRYKVLGIWQYSEKETAALFGCEPGDIKLDLPSVKKDGNGYYYMNPEGERVDITAENPYGVRADYDRQVIGRNTPDWTLGFKNNFRYKDFDLSVFLYARWGQMMNYGSVIGKYSPNPDYNIPTYFTYYDKTIEADQDVLFYAIDKSKDRSAYEGYDSMYYVDGSFFKLKNVTLGYTLPGKLTKRFGISNLRVYATMTNLFTYSPNKYVKNYDPEMNGSINFPLSRDCIFGLNLTF", "soluble on expression in E. coli": "not soluble"}
{"sequence": "SNAMILSQQKYNYLAKVSDSNGVISALAFDQRGALKCLMAQYQMKEPTVAQMEELKVLVSEELTPYASSILLDPEYGLPAAQARDREAGLLLAYEKTGYDANTTSRLPDCLVDWSIKRLKEAGADAVKFLLYYDVDGDPQVNVQKQAYIERIGSECQAEDIPFFLEILTYDETISNNSSVEFAKVKVHKVNDAMKVFSAERFGIDVLKVEVPVNMVYVEGFAEGEVVYSKEEAAQAFREQEASTDLPYIYLSAGVSAELFQETLVFAHKAGAKFNGVLCGRATWAGSVQVYMEEGKEAARQWLRTSGLQNINELNKVLKTTASPWTEKVSVG", "soluble on expression in E. coli": "soluble"}
{"sequence": "MNELTGADFKSATADDNKKLFIETYGCQMNVADSEVIASVMQMAGYSVAETLEEADAVFMNTCSIRDNAEQKILNRLEFFHSLKKKKKALIVGVLGCMAERVKDDLITNHHVDLVVGPDAYLTLPELIAAVEAGEKAINVDLSTTETYRDVIPSRICGNHISGFVSIMRGCNNFCTYCIVPYTRGRERSRDVESILNEVADLVAKGYKEVTLLGQNVNSYRFEKPTGEVVTFPMLLRMVAEAAPGVRIRFTTSHPKDMSDETLEVIAQVPNVCKHIHLPVQSGSSRILKLMNRKYTREWYLDRVAAIKRIIPDCGLTTDIFSGFHSETEEDHQLSLSLMEECGYDAAFMFKYSERPGTYASKHLEDNVPEDVKVRRLNEIIALQNRLSAESNQRCIGKTYEVLVEGVSKRSRDQLFGRTEQNRVVVFDRGTHRIGDFVNVRVTEASSATLKGEEVLEHHHHHH", "soluble on expression in E. coli": "soluble"}
{"sequence": "MTTQNELLNRIAELETKVAFQDNVIEELNQVLIHHQFVLDKLQTQVRHFANKFKNIQSSNVASQAEETPPPHY", "soluble on expression in E. coli": "soluble"}
{"sequence": "MGSDKIHHHHHHQTPSPLGEWQYSAGVPLDKLFNPNPQTWQISVGAAATLQPRYDGSNQYRPMAGPTFDARYRDLWFVSTGEGIGVNVLRGPNWRATLSAGYDLGRREADDRGHLTGIGNINPAAVIKLSADYVISHAFPLVLRADVRRSVGGANGWVADLAAYMPLPGSSETFYWFAGPTVTFADSRYMNSWFGVNDAQAARSGHPRYAPSAGVKSFGGGMTLVWFVTKHWFVTADGAIEQLVGSAARSPLTQRSTNAVVDVSINYQF", "soluble on expression in E. coli": "not soluble"}
